In article PMC10273302 (Science (New York, N.Y.), 2023):
Where a chain is given by its changes, count along the chain named.

B1: EBV_c186 (antibody, V domains shown)
VH: QVHLVQSGTEVRKPGASVKISCETSGFNFSDYYVHWVRQAPGQGLEWMGIINAGGGSTSYAQRFRGRVTVTRDTSTRSVYMELRSLAPNDTAVYYCTRDRDQRLLFDYWGQGSLLIVSS
VL: SSELTQPPSVSVSPGQTARITCSGDALPKNYAYWYQQKSGQAPVLVIYEDNKRPSGIPERFSGSSSGTTATLTISGAQMEDEGDYYCYSKDRFGGGTKVTVL
notes: recombinant human IgG
B2: EBV_c9 (antibody, V domains shown)
VH: QVQLVQSGAEVKKPGASVKISCKASGYNFTNYYMHWVRQAPGQGLEWMGVINPHDNTNYAQKFRGRFIVTKDTSTTTLHMELRGLRSEDTAVYYCARGPDYVGISSPFDYWGQGTLVTVSS
VL: SHELTQPPSVPVSPGQTARITCSGDGLPKNYAYWYQQKSGQAPVLVIYEDRKRPSGIPERFSGSSSGTMATLTISGAQVEDEADYYCYSGDSNGNHWVFGGGTKLTVL
notes: recombinant human IgG
B3: EBV_c19 (antibody, V domains shown)
VH: QVQLVQSGAEVKKPGASVKLSCKASGYNFTNYYMHWVRQAPGQGLEWMGVINHGGLTNYAQRFRGRFIVTRDTSTTTLHMELRSLRSEDTAVYYCARGPDYGGNSSPFDNWGQGTLVTVSS
VL: B2 VL with S92I
notes: recombinant human IgG
B4: EBV_c61 (antibody, V domains shown)
VH: B2 VH with I20V, Y33F, I51L, P53S, H54G, D55A, K71R, G84S, Y101S, V102S
VL: B2 VL with Y31F, Q37K, M69T, V79E, E80D, D84E, S92T
notes: recombinant human IgG
B5: EBV_c149 (antibody, V domains shown)
VH: QVQLVQSGAEVKKPGASVKVSCKASGYNFTNYYMHWVRQAPGQGLEWMGVINPDGGSTSYAQKFRGRFIVTRDTSTTTLHMELRSLRSEDTAVYFCARGPDYVGISSPFDFWGQGTLVTVSS
VL: B2 VL
notes: recombinant human IgG
B6: EBV_c101 (antibody, V domains shown)
VH: QVHLVQSGTEVKKPGASVKVSCKASGYTFIDYFIHWVRQAPGQGLEWMGIINPGGGSTSYAQKFRGRVTVTRDASTSTVYLELRSLRSDDSAVYYCARGTAVSTNLGLLFDLWGQGTLVSVSS
VL: SYELTQPPSVSVSPGQTARITCSGDDLPKNYAYWYQQKSGQAPTLVINEDNKRPSGIPERFSGSSSGTMATLTISGAQVEDEADYYCFSADSSGTHSVFGGGTKVTVL
notes: recombinant human IgG
B7: EBV_c150 (antibody, V domains shown)
VH: QVLLVQSGAEVRKPGASVKLSCTASGYNFTNYYIHWVRQAPGQGLEWMGILNPTGGGTIYPHNFRGRVTMTRETSTSTAYMELKNLTSDDTAVYYCARVPPDDGYFDYWGQGALVTVSS
VL: SYEPTQPPSVSVSPGQTARITCSGDALPKRYVYWYQQKSGQAPALVIYDDTKRPSGIPERFSGSSSGTMATLTINGAQVEDEADYYCYTTGSSVSHVVFGGGTKLTVL
notes: recombinant human IgG
B8: EBV_c40 (antibody, V domains shown)
VH: QVQMVQSGAEVKRPGDSVRVSCKASGYIFTNYHLHWVRQAPGQGLEWMGIVTPNGSRTNYAQKFKGRVIMSSEASTNTLYMDLSSLKSEDTAVYFCARARDLYGDSDFDYWGQGTPVMVSS
VL: SYELSQPPSVSVSPGQTASVSCSGDSLGDKYVSWYQQRPGQSPVVVIYQDRKRPSGIPERFSGSNSGKAATLTISGAQAVDEATYFCQAWESSNVVFGGGTTLTVL
notes: recombinant human IgG
B9: EBV_c3 (antibody, V domains shown)
VH: QVHLVQSGAEVKKSGASVKVSCKASGFTFTNHDINWVRQAPGQGLEWMGWINPNSGNTGFAQKFRGRVTLTRNNSITTAYMELRGLTYEDTAIYYCARAFCNSDRCSPELFDPWGQGTLVTVSS
VL: QSVLTQPPSVSADPGQRVTISCSGSSSNIGNSYVSWYQQLPGTAPRFLIYDNNKRTSGIPDRFSGSKSGTSATLAITGLQTGDEADYYCATWDTSLRGVVFGGGTKLTVL
notes: recombinant human IgG; source: Expi293 or ExpiCHO, recombinant; filtered culture supernatant
B10: EBV_c120 (antibody, V domains shown)
VH: QVHLVQSGAEVKKPGASVKVSCKASGFAFTTYDINWVRQAAGQGLEWMGWMNPNSGNRGYAQKFQGRVTMTRNTSITTAYMELTSLTSEDTAVYYCARAYCNSNRCSPELFDPWGQGTQVTVSS
VL: QSVLTQPPSVSAAPGQMVTISCSGSSSNIGNNFVSWYQQLPGTVPKYVIYDNNKRPSGIPERFSGSRSGTSATLGITGLQTGDEADYYCATWDSSLRGVVFGGGTKLTVL
notes: as for B9
B11: EBV_c63 (antibody, V domains shown)
VH: QVQLVQSGAEVKKPGASVKVSCKASGYTFTSYYIHWVRQAPGQGLEWMGIINPSDGTTDYAQRLQGRVTMTRVTSTSTVYMELSSLRSEDTAVYYCARDREQMVRGIIISNGLDVWGQGTTVTVSS
VL: QSALTQPASVSGSPGQSITFSCTGTSSDVGGYNFVSWYQQHPGKAPKLMIYDVTNRPSGVSNRFSGSKSGNTASLTISGLQAEDEADYYCSSYTSSSTLVFGTGTKVTVL
notes: recombinant human IgG
B12: EBV_c83 (antibody, V domains shown)
VH: QEQLVQSGTAVKKPGASVKVSCKTSRDTFTIYYIHWVRQAPGQGLEWMGIINPSGGNTSHAQKFQGRVTMTSDASTSTVYMELSSLRFEDTATYYCARVGYNWGSHSVSSPGAMDVWGQGTTVSVSS
VL: SIELTQPSSVSVSPGQTATITCSGDVLPKQYAYWYQQKPGRAPMLVVYKDSERPSGISERFSGSSAGTAVTLTISAVQAEDEADYYCQSADTGGTYVIFGGGTKLTVL
notes: recombinant human IgG
B13: EBV_c124 (antibody, V domains shown)
VH: QVQLVQSGAEVRKPGASVKVSCKASGYTFNTYFIQWVRQAPGQGLEWMGVINSSGSGTRYAPKFRGRVILTRDTSTSTAFMELSSLTSEDTAVYYCARAAEGDYGDSALDYWGQGTLVSVSS
VL: SYELTQPHSVSVSPGQTASIACSGEKLDKKYTCWYQQRPGQSPVLVIYQDRKRPSGIPERFSGSNSGNTATLTISGTQAIDEADYYCQVWDSNTVVFGGGTKLTVL
notes: recombinant human IgG
B14: EBV_c10 (antibody, V domains shown)
VH: B10 VH with K23Q, Q43H, S88P, E89D, Y100F
VL: B10 VL with S25G, L40I, N53D, G75V, S94N
notes: recombinant human IgG
B15: EBV_c77 (antibody, V domains shown)
VH: B9 VH with K13R, R65Q, T87R
VL: B9 VL with S25T, S26G, S32N
notes: recombinant human IgG
B16: EBV_c127 (antibody, V domains shown)
VH: B9 VH with S14F, K19Q, T87R
VL: B9 VL with S25T, N31K, S32N, Y33F, L40F, R46K, T56A, T73I, T94N, V100L
notes: recombinant human IgG
B17: EBV_c138 (antibody, V domains shown)
VH: B9 VH with T87K
VL: B9 VL with Q16H, S25T, S32N, A75T, T77S
notes: recombinant human IgG
B18: EBV_c57 (antibody, V domains shown)
VH: QVQLVQSGAEVKKPGASVKVSCKASGYTFTSYDINWVRQAPGQGLEWLGWMNPNNENTGYAQKFQGRIIMTRNTSIDTVYMELSSLRSEDTAVYYCEAIAAVSATEGAFDIWGQGTMVTVSS
VL: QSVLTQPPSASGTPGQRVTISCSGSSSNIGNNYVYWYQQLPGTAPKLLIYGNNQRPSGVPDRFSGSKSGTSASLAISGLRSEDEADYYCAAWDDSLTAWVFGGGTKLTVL
notes: recombinant human IgG
B19: EBV_c98 (antibody, V domains shown)
VH: QVQLVESGGGVVQPGRSLRLSCAASGITLSSYGMHWVRQAPGKGLEWVAVISYDGSKKDYGDSVKGRFTISRDNFKNTLYLQMSSLRAEDTAVYYCAKDTIFDGMDVWGQGTTVTVSS
VL: DVVMTQSPLSLPGTLGQPASISCRSSQSLVYSDGNTYLNWFQQRPGQSPRRLIYQVSNRDSGVPDRFSGSGSGTDFTLTISKVEAEDVGVYYCMQSTHWPLTFGGGTKVEIK
notes: recombinant human IgG
B20: EBV_c40 with light chain D51K (antibody, V domains shown)
VH: B8 VH
VL: B8 VL with D50K
notes: source: Expi293 or ExpiCHO, recombinant; filtered culture supernatant
B21: EBV_c124 with light chain D51K (antibody, V domains shown)
VH: B13 VH
VL: B13 VL with D50K
notes: as for B20
B22: flu_c504 (antibody, V domains shown)
VH: EVQLVQSGAEVKKPGESLKISCKASGYTFTRYWIAWVRQMPGKGLEWMGIIYPGDSDTRYNPSFQGQVTISADKSINTAYLQWSSLKASDTAIYYCAMCVGSPTCYGWFDPWGQGTLVTVSS
VL: DIVMTQSPDSLAVSLGERATINCKSSLNILYSSNKKNYLAWYQQKPGQPPKLLIYWASTRESGVPDRFSGSGSGTDFTLTISSLQAEDVAVYYCQQYHSIPYTFGQGSKLEIK
B23: flu_c645 (antibody, V domains shown)
VH: EVQLVQSGAEVKKPGESLKISCQASGYIFVNYWVGWLRQAPGKGLEWIGIIFPGDSDTTYSPSFQGQVTISAAKSINTVYLQWNSLKASDTAMYYCARAPVPGMSGWFDPWGQGTLVTVSS
VL: DIVMTQSPDSLAVSLGGGATIKCKSSHSLLYSSNSKNYLSWYQQKPGQPPKLLFYWASTRESGVPDRFSGSGSGTDFTLTIDSLQAEDLAVYFCQQYFYTPYTFGQGTKLEIN

Biological target: T1, EBV minimal peptide PPSTSSKLRPRWTFT (spotted for dot blot) (Human herpesvirus 4 (Epstein-Barr …))
T1 construct: also called EBV gp350 minimal peptide; 72153; source: "recombinant peptide" spotted on nitrocellulose
T1 chain: PPSTSSKLRPRWTFT
Assay: far-Western, overlay or dot blot
Conditions: one partner purified

Binder | binding result
B1 | binds
B2 | binds
B3 | binds
B4 | binds
B5 | binds
B6 | binds
B7 | binds
B8 | binds
B9 | binds
B10 | binds
B11 | binds
B12 | binds
B13 | binds
B14 | binds
B15 | binds
B16 | binds
B17 | binds
B18 | binds
B19 | binds
B20 | binds
B21 | binds

Biological target: T2, influenza A minimal peptide VPNGTLVKTITNDQI (spotted for dot blot) (Influenza A virus (H3 hemagglutinin …))
T2 chain: VPNGTLVKTITNDQI
Assay: not given
Conditions: not given

Binder | binding result
B22 | binds
B23 | binds
